Test results reported in US20020182172A1, “Water-soluble polymer conjugates of triazine derivatives” (Shearwater Corporation, priority 2000, published 2002).

Experiment: Stability study in D2O (formaldehyde release monitored by NMR; MALDI-TOF of hydrolyzed product)
Description: Compound III, V, and XIV (6 mg) were separately dissolved in 0.75 ml of D2O and stored at 37° C. The methylene peak disappearance as well as methyl peak shift were monitored by 300 MHz NMR over time. The half-life of the formaldehyde release reaction was monitored using first order kinetics.

Substance	half-life (t1/2) of the formaldehyde release reaction [h]	dimerization (MALDI-TOF spectrum of hydrolyzed compound) (after hydrolysis in D2O at 37° C.)
2-mPEGyloxy5k-4,6-di-(N-methyl-N-hydroxymethylamino)-1,3,5-triazine [Compound III]	81	–
2-mPEGyloxy350-4,6-di-(N-methyl-N-hydroxymethylamino)-1,3,5-triazine [V]	81	no detectable dimerization
